According to US7611713:

Target: HLA-B*0701 (as printed in the head of Table XXII) (human)
Experiment: competitive inhibition of radiolabeled standard peptide binding to purified HLA

Q: How did the IC50 turn out when “HBV ENV 313 analog with F at position 1 (peptide; other documents disagree on this pair)” was run?
A: Its IC50 is 24 nM.
